From US20170022503A1 (NATIONAL UNIVERSITY OF SINGAPORE, published 2017) come the findings set out here.

Sequences and labels used below:
B1: flag-tagged WARS2(L53F) mutant (human) (enzyme)
chain: LHKGSAAAPALQKDSKKRVFSGIQPTGILHLGNYFGAIESWVRLQDEYDSVLYSIVDLHSITVPQDPAVLRQSILDMTAVLLACGINPEKSILFQQSQVSEHTQLSWILSCMVRLPRLQHLHQWKAKTTKQKHDGTVGLLTYPVLQAADILLYKSTHVPVGEDQVQHMELVQDLAQGFNKKYGEFFPVPESILTSMKKVKSLRDPSAKMSKSDPDKLATVRITDSPEEIVQKFRKAVTDFTSEVTYDPAGRAGVSNIVAVHAAVTGLSVEEVVRRSAGMNTARYKLAVADAVIEKFAPIKREIEKLKLDKDHLEKVLQIGSAKAKELAYTVCQEVKKLVGFL
notes: also called mutant WARS2; not shown: C-terminal myc-DDK (flag) tag of the Origene construct
B2: glyceraldehyde-3-phosphate dehydrogenase (GAPDH) (enzyme)
chain: not shown
notes: GAIT complex component; endogenous protein of HUVEC cells

Holding throughout (assay): co-IP of flag-tagged protein from HUVEC cells, blot
Test [1] addresses T1, glutamyl-prolyl tRNA synthetase (EPRS) (human, UniProt P07814 1-1512).
T1 construct: GAIT complex component; endogenous protein of HUVEC cells

For test [2], the target named is Ribosomal Protein L 13a (RPL13a) (human, UniProt P40429 2-203).
In test [3] the target is B1.

T1 sequence (P07814 whole entry): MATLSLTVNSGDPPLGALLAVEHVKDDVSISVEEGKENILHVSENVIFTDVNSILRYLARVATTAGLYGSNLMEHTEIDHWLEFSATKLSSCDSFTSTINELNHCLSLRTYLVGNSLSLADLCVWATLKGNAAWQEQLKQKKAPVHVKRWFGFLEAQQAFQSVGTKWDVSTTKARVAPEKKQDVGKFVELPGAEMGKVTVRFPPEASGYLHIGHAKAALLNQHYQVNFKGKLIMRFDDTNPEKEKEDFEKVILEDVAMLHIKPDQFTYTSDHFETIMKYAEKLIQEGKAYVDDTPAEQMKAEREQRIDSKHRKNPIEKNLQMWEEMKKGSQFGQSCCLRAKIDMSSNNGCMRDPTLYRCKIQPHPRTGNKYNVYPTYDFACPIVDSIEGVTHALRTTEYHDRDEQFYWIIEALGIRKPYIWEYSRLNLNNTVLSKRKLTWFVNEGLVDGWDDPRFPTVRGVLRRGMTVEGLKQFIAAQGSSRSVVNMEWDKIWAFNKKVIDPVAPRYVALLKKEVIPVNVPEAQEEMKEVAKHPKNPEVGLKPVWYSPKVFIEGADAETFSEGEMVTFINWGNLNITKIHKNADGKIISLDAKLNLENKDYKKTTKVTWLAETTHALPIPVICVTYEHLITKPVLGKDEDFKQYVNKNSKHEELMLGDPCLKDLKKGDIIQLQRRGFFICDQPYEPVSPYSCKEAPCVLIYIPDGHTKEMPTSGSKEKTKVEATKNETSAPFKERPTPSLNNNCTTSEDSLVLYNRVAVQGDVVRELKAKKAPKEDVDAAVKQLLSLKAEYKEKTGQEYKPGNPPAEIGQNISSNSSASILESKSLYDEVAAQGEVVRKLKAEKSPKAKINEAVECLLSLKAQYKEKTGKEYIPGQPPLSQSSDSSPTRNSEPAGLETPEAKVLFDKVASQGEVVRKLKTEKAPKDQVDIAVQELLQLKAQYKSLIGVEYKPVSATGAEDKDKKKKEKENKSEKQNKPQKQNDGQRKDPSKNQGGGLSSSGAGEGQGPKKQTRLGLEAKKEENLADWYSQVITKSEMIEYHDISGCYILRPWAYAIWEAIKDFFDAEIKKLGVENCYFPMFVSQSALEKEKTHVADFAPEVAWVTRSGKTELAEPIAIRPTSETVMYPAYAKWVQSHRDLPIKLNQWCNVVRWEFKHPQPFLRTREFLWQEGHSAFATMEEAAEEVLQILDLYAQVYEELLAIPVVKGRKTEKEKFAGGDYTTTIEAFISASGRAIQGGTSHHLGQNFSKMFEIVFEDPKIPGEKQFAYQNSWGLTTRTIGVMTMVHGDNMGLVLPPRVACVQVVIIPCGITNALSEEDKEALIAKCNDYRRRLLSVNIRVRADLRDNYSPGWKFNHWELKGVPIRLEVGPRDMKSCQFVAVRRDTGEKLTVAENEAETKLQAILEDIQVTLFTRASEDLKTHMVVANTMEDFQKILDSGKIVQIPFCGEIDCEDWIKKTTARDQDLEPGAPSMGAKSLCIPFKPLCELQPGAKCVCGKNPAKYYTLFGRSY

With B1, the binding result in test [1] and in test [2] was “no binding” each time. B2: the binding result in test [3] was “no binding”.
